Reference: paper doi:10.1101/826115

Molecular target: Respiratory complex I (mouse (endogenous in mouse tissues and L929 cells)) (UniProt Q9DC69)
Assay: Blue-DiS complexome profiling

Chain of UniProt Q9DC69 (Q9DC69 whole entry, looked up, one chain of several): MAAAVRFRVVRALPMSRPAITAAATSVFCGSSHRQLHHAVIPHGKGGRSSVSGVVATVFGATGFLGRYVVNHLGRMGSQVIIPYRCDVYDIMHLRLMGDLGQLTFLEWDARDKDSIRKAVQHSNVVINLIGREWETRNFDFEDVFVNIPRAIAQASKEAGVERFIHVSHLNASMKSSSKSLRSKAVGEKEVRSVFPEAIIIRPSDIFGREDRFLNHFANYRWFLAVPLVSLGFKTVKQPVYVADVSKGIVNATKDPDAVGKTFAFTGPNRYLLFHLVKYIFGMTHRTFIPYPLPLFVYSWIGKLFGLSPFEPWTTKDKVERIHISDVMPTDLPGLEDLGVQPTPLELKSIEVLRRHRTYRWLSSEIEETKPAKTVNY

| Substance | stoichiometry N |
| --- | --- |
| Respiratory complex III dimer (from UniProt Q9DB77 15-453) | 2 CIII:CI |
| Respiratory complex IV (from UniProt P00397 1-514) | 1 CI:CIV |
